Target: the molecule itself
Assay: cross-linking

B1: C-terminal fragment of bovine ROS-GC1 comprising the αHD and CD (aa 814-1110) (domain or fragment, UniProt P55203 814-1110, looked up)
chain: NKGRKMNIIDSMLRMLEQYSSNLEDLIRERTEELELEKQKTDRLLTQMLPPSVAEALKMGTPVEPEYFEEVTLYFSDIVGFTTISAMSEPIEVVDLLNDLYTLFDAIIGSHDVYKVETIGDAYMVASGLPQRNGHRHAAEIANMALDILSAVGTFRMRHMPEVPVRIRIGLHSGPCVAGVVGLTMPRYCLFGDTVNTASAMESTGLPYRIHVNRSTVQILSALNEGFLTEVRGRTELKGKGAEETYWLVGRRGFNKPIPKPPDLQPGASNHGISLHEIPPDRRQKLEKARPGQFSGK
B1: binds.
